In publication PMC8263776, “Calmodulin-dependent KCNE4 dimerization controls membrane targeting” (Scientific Reports, 2021):

Experiments:
[1] = molecular target: the molecule itself; assay: counting of GFP bleaching steps of single spots (TIRF microscopy); loopBAD-GFP proteins biotinylated by BirA on HEK-293 cells, immobilised through neutravidin on biotinylated glass; bleaching steps counted per spot
[2] = molecular target: the molecule itself; assay: cross-linking; HEK-293 lysates (50 mM boric acid, 100 mM K acetate, 2 mM MgCl2, 1 mM EGTA, 1% Triton X-100, pH 8.5) with or without 5 mM DMP for 1 h; 7% SDS-PAGE, immunoblot against CFP

Row | Protein | stoichiometry N [1] | stoichiometry N [2]
1 | KCNE4-loopBAD-GFP (natural protein, mouse, UniProt Q9WTW3 1-170, looked up, biotin on the loopBAD tag (BirA co-expressed), KCNE4, mouse (mKCNE4), UniProtKB Q9WTW3; KCNE4-GFP with a loopBAD tag introduced at an NruI restriction site; source: HEK-293, electroporated with BirA, on the cell surface) MLRMEPLNSTYPSAAASSSPLESHVPSNSSGNGNEYFYILVVMSFYGVFLIGIMLGYMKSKRREKKSSLLLLYKDEERLWGEAMKPLPMMSGLRSGQVPMMLNMLQESVAPALSCTLCSMEGDSVSSESSSPDVHLPIQEEGADDELEETSETPLNDSSEGSSENIHQNS | 2 | –
2 | Kv1.3-CFP (natural protein, rat, UniProt P15384 1-525, looked up, Kv1.3, rat (rKv1.3), subcloned from pRcCMV into pECFP-C1; pECFP-C1 is surmised to put CFP at the N-terminus of the insert; source: HEK-293, transfected; in lysate (cross-linking) or in fixed cells (FRET)) MTVVPGDHLLEPEAAGGGGGDPPQGGCVSGGGCDRYEPLPPALPAAGEQDCCGERVVINISGLRFETQLKTLCQFPETLLGDPKRRMRYFDPLRNEYFFDRNRPSFDAILYYYQSGGRIRRPVNVPIDIFSEEIRFYQLGEEAMEKFREDEGFLREEERPLPRRDFQRQVWLLFEYPESSGPARGIAIVSVLVILISIVIFCLETLPEFRDEKDYPASPSQDVFEAANNSTSGASSGASSFSDPFFVVETLCIIWFSFELLVRFFACPSKATFSRNIMNLIDIVAIIPYFITLGTELAERQGNGQQAMSLAILRVIRLVRVFRIFKLSRHSKGLQILGQTLKASMRELGLLIFFLFIGVILFSSAVYFAEADDPSSGFNSIPDAFWWAVVTMTTVGYGDMHPVTIGGKIVGSLCAIAGVLTIALPVPVIVSNFNYFYHRETEGEEQAQYMHVGSCQHLSSSAEELRKARSNSTLSKSEYMVIEEGGMNHSAFPQTPFKTGNSTATCTTNNNPNSCVNIKKIFTDV | – | 4
3 | Kv1.3-loopBAD-GFP (natural protein, rat, UniProt P15384 1-525, looked up, biotin on the loopBAD tag (BirA co-expressed), Kv1.3, rat (rKv1.3); GFP-Kv1.3 with a loopBAD tag introduced at an NruI restriction site; source: HEK-293, electroporated with BirA, on the cell surface) MTVVPGDHLLEPEAAGGGGGDPPQGGCVSGGGCDRYEPLPPALPAAGEQDCCGERVVINISGLRFETQLKTLCQFPETLLGDPKRRMRYFDPLRNEYFFDRNRPSFDAILYYYQSGGRIRRPVNVPIDIFSEEIRFYQLGEEAMEKFREDEGFLREEERPLPRRDFQRQVWLLFEYPESSGPARGIAIVSVLVILISIVIFCLETLPEFRDEKDYPASPSQDVFEAANNSTSGASSGASSFSDPFFVVETLCIIWFSFELLVRFFACPSKATFSRNIMNLIDIVAIIPYFITLGTELAERQGNGQQAMSLAILRVIRLVRVFRIFKLSRHSKGLQILGQTLKASMRELGLLIFFLFIGVILFSSAVYFAEADDPSSGFNSIPDAFWWAVVTMTTVGYGDMHPVTIGGKIVGSLCAIAGVLTIALPVPVIVSNFNYFYHRETEGEEQAQYMHVGSCQHLSSSAEELRKARSNSTLSKSEYMVIEEGGMNHSAFPQTPFKTGNSTATCTTNNNPNSCVNIKKIFTDV | 4 | –
